Measured values taken from US20210170047A1 (CASE WESTERN RESERVE UNIVERSITY, published 2021).
Ends that are not written are not given here.

Columns and labels:
[1] = target: T1, P-selectin on ADP-activated human platelets (human, UniProt P16109 42-830); assay: fluorescence microscopy, static, collagen-adhered activated human platelets
T1 construct: whole, on cells; also called CD62P; P-selectins
T1 sequence (looked up): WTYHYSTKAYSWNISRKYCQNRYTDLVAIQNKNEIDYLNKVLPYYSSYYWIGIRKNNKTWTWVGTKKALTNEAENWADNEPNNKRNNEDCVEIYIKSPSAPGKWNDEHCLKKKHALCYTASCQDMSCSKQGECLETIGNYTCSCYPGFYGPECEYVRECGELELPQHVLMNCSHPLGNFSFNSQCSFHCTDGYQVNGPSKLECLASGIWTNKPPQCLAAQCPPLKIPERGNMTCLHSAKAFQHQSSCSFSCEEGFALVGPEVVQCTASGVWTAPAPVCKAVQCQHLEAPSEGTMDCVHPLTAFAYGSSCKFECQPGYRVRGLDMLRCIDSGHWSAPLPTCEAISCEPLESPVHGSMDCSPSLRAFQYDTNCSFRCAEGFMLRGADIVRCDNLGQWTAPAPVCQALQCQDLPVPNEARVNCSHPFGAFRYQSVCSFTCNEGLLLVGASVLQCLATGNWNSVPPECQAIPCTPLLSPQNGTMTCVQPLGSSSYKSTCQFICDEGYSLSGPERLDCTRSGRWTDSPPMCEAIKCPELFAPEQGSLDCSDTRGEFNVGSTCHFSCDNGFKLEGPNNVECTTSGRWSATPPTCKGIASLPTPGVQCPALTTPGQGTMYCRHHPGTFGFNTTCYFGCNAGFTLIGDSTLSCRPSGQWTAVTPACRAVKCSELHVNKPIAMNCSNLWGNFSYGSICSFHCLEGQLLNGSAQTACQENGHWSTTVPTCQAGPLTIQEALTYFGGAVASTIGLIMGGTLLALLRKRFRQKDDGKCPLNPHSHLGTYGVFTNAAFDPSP
Experimental: Receptor-specific binding studies in a static environment human whole blood was obtained from healthy, aspirin-refraining donors by venipuncture following IRB-approved protocol and collected in citrated tubes. Platelet-rich-plasma (PRP) was obtained from the whole blood by centrifugation (150×g, 15 min, room temperature), and platelet concentration was verified at 200×10⁶ platelets/ml. The platelets in PRP were activated using ADP at a concentration of 2×10⁻⁵M, and were allowed to adhere to glass coverslips pre-coated with collagen. […] After 1 h of incubation, the coverslips were gently washed with PBS to remove loosely bound liposomal constructs and imaged using fluorescence microscopy. […] D1 inverted fluorescence microscope fitted with a photometrics chilled CCD camera and a 63× objective using exposure time of 800 ms. To confirm that non-specific binding of the liposomes was not occurring, fluorescently-labeled peptide-modified liposomal constructs were incubated with coverslips coated with collagen only but no activated platelets, followed by gentle washing and imaged using fluorescence microscopy keeping same exposure times (800 ms).

[2] = target: T2, integrin αIIbβ3 (glycoprotein GPIIb-IIIa) on ADP-activated human platelets (human, UniProt P08514 32-1039; P05106 27-788); assay: flow cytometry, agonist-added human whole blood, 50 µM total lipid
T2 construct: whole, on cells; also called CD41a
Experimental: The effect of platelet activation on liposome binding was studied by a FACScan flow cytometer (Becton Dickinson) with a 488 nm laser and three color detector. For cytometry analysis whole blood aliquots with different platelet activation levels were used. The level of platelet-activation was assessed by simultaneous fluorescence staining of platelet integrin GPIIb-IIIa (with FITC-anti-CD41a) and P-Selectin (with PE-anti-CD62P). Previously we have reported on detecting progressive activation of platelets in freshly drawn blood with addition of agonists (e.g., ADP) and have confirmed that binding of RGD-modified liposomes to platelets increased in an activation-dependant manner. Following a similar protocol, whole blood aliquots containing predominantly activated platelets were incubated with PDPC-NBD-labeled cRGD-, lRGD-, or lRGE-modified liposomes at a final concentration of 50 μM total lipid. For the liposome incubated samples, FITC-anti-CD41a labeling was not used, while PE-anti-CD62P labeling was still used as an activated platelet marker. Simultaneous PE and NBD fluorescence, for gated platelet populations, was analyzed for ˜20,000 events (counts) per sample aliquot and fluorescence data were recorded accordingly. […]

[3] = target: T2, integrin αIIbβ3 (glycoprotein …); assay: flow cytometry, human whole blood with ADP pre-incubation, 50 µM total lipid
Text: Parallel phase contrast image of the same field of view was obtained on the same microscope, by shutting off the fluorescence laser, turning on the phase contrast light source and changing the objective from fluorescence to a phase contrast one, at same magnification. To establish that the specific binding of cRGD-liposomes is predominantly to activated platelets compared to quiescent platelets, we performed flow cytometry assays similar to that described in previous publications from our group. Briefly, NBD-labeled cRGD liposomes were incubated with aliquots of freshly drawn human whole blood with or without the addition of agonist ADP. […] Following 30 min of liposome incubation, the aliquots were analyzed in a Becton-Dickinson FACScan flow cytometer for NBD fluorescence. All aliquots were measured in triplicate and approximately 15000 counts were recorded per aliquot. […] The NBD fluorescence intensity from aliquots without liposome incubation, aliquots with liposome incubation but without ADP pre-incubation, and aliquots with liposome incubation after ADP pre-incubation, were recorded as histograms and the plots were overlaid for comparison.

[4] = target: T3, integrin GPIIb-IIIa on resting (predominantly inactive, no ADP) human platelets (human, UniProt P08514 32-1039; P05106 27-788); assay: flow cytometry, human whole blood without agonist
T3 construct: whole, on cells; also called predominantly resting platelets

[5] = target: T2, integrin αIIbβ3 (glycoprotein …); assay: dual fluorescence microscopy, co-incubation with peptide-modified liposomes
Experimental: The [fibrinogen: liposome] ratio in the incubation assays was maintained at 400:1 by mole, to provide a physiologically relevant competitive environment. […] A 40× oil-immersion objective was used to visualize fluorescence from platelets. Images were collected in MetaMorph™ (Universal Imaging Corp.), using an exposure time of 500 ms and intensity analysis was performed in the software accordingly. Fluorescence intensity was recorded as mean intensity per pixel area for statistical analysis. All coverslips were prepared in duplicate, and at least three fields were examined for each well.

[6] = target: T2, integrin αIIbβ3 (glycoprotein …); assay: cell-based or functional assay

T2 sequence (P08514 32-1039, chain 1 of 2): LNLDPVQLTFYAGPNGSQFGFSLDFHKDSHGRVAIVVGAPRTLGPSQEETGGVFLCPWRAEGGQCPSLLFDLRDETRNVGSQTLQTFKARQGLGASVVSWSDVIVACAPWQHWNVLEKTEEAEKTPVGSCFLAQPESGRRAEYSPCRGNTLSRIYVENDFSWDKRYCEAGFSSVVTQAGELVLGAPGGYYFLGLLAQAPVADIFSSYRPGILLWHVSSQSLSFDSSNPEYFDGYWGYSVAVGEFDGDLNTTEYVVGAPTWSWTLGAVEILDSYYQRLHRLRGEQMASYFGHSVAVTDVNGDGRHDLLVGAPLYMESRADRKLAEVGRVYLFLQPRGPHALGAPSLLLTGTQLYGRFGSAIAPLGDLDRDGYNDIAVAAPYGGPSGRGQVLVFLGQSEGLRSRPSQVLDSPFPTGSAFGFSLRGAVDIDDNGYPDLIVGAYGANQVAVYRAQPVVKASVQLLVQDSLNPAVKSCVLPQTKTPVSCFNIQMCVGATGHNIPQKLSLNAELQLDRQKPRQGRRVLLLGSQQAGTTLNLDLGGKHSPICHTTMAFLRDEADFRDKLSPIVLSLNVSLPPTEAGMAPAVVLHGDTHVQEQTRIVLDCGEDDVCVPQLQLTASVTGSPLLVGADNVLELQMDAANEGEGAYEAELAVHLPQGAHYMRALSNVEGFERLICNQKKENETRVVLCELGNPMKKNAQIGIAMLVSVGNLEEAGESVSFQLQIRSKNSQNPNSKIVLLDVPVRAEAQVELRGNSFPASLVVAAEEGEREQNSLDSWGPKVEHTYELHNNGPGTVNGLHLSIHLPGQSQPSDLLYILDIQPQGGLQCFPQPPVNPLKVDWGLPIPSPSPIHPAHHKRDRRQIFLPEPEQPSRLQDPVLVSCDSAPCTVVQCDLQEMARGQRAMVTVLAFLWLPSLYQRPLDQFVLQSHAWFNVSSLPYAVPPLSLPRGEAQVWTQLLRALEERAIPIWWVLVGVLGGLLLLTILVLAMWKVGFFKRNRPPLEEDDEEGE
T2 sequence (P05106 27-788, chain 2 of 2): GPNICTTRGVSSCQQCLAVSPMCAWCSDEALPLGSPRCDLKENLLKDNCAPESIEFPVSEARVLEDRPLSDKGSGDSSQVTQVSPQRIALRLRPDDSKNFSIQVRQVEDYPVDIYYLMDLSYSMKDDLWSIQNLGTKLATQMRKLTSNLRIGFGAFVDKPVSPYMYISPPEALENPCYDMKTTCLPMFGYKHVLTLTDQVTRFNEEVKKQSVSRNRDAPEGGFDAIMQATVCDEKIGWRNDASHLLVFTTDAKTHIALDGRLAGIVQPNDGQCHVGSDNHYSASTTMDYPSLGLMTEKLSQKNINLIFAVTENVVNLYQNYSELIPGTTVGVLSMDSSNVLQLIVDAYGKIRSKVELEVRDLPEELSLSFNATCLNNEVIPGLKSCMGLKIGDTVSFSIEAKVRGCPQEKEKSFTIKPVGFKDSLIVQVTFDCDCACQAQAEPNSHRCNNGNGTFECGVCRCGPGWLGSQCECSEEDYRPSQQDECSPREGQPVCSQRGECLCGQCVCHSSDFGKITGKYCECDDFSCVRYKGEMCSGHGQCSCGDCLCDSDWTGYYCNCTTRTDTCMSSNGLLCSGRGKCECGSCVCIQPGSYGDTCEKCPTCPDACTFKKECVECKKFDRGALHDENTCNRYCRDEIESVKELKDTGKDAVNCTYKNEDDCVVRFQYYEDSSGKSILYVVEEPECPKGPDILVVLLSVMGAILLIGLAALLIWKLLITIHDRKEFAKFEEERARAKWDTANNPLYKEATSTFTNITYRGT
T3 sequence (P08514 32-1039, chain 1 of 2): as the sequence (P08514 32-1039, chain 1 of 2) above
T3 sequence (P05106 27-788, chain 2 of 2): as the sequence (P05106 27-788, chain 2 of 2) above

B1: DAEWVDVS-modified liposomes (liposomes surface-decorated with DSPE-PEG-DAEWVDVS) (peptide)
peptide: {DSPE‑PEG}-DAEWVDVS
modifications: also: displayed multivalently on ~150 nm liposome surface, 5 mol % (2.5-10 mol %)
notes: also called singly-targeted liposomes
B1: binds [1].

B2: cRGD-liposomes (liposomes surface-decorated with DSPE-PEG-cRGD, cyclo-CNPRGDY(OEt)RC) (peptide)
peptide: CNPRGDYRC
modifications: not fully specified; Y(OEt); terminal cysteines cyclized through disulfide; N-terminus conjugated to DSPE-PEG lipid, displayed on the liposome surface
notes: NBD or Nanogold label; also called cyclic RGD-modified liposomes
For B2, the “platelet-associated NBD fluorescence against lRGD-liposome-incubated aliquots” value [2] was ~10 fold (printed as an order of magnitude) and the “NBD fluorescence of ADP-activated platelets against inactive platelets” value [3] was ~100 fold (printed as two orders of magnitude).

B3: RGE-liposomes (liposomes surface-decorated with the negative control peptide GSSSGRGESPA) (peptide)
peptide: {DSPE‑PEG}-GSSSGRGESPA
modifications: also: displayed on liposome surface, 1 or 5 mol %
notes: also called lRGE-liposomes; constructs bearing negative control peptides
B3: no binding (tested: 50 µM total lipid) [4].

B4: human fibrinogen (ligand)
chain 1: ADSGEGDFLAEGGGVRGPRVVERHQSACKDSDWPFCSDEDWNYKCPSGCRMKGLIDEVNQDFTNRINKLKNSLFEYQKNNKDSHSLTTNIMEILRGDFSSANNRDNTYNRVSEDLRSRIEVLKRKVIEKVQHIQLLQKNVRAQLVDMKRLEVDIDIKIRSCRGSCSRALAREVDLKDYEDQQKQLEQVIAKDLLPSRDRQHLPLIKMKPVPDLVPGNFKSQLQKVPPEWKALTDMPQMRMELERPGGNEITRGGSTSYGTGSETESPRNPSSAGSWNSGSSGPGSTGNRNPGSSGTGGTATWKPGSSGPGSTGSWNSGSSGTGSTGNQNPGSPRPGSTGTWNPGSSERGSAGHWTSESSVSGSTGQWHSESGSFRPDSPGSGNARPNNPDWGTFEEVSGNVSPGTRREYHTEKLVTSKGDKELRTGKEKVTSGSTTTTRRSCSKTVTKTVIGPDGHKEVTKEVVTSEDGSDCPEAMDLGTLSGIGTLDGFRHRHPDEAAFFDTASTGKTFPGFFSPMLGEFVSETESRGSESGIFTNTKESSSHHPGIAEFPSRGKSSSYSKQFTSSTSYNRGDSTFESKSYKMADEAGSEADHEGTHSTKRGHAKSRPV
chain 2: QGVNDNEEGFFSARGHRPLDKKREEAPSLRPAPPPISGGGYRARPAKAAATQKKVERKAPDAGGCLHADPDLGVLCPTGCQLQEALLQQERPIRNSVDELNNNVEAVSQTSSSSFQYMYLLKDLWQKRQKQVKDNENVVNEYSSELEKHQLYIDETVNSNIPTNLRVLRSILENLRSKIQKLESDVSAQMEYCRTPCTVSCNIPVVSGKECEEIIRKGGETSEMYLIQPDSSVKPYRVYCDMNTENGGWTVIQNRQDGSVDFGRKWDPYKQGFGNVATNTDGKNYCGLPGEYWLGNDKISQLTRMGPTELLIEMEDWKGDKVKAHYGGFTVQNEANKYQISVNKYRGTAGNALMDGASQLMGENRTMTIHNGMFFSTYDRDNDGWLTSDPRKQCSKEDGGGWWYNRCHAANPNGRYYWGGQYTWDMAKHGTDDGVVWMNWKGSWYSMRKMSMKIRPFFPQQ
chain 3: YVATRDNCCILDERFGSYCPTTCGIADFLSTYQTKVDKDLQSLEDILHQVENKTSEVKQLIKAIQLTYNPDESSKPNMIDAATLKSRKMLEEIMKYEASILTHDSSIRYLQEIYNSNNQKIVNLKEKVAQLEAQCQEPCKDTVQIHDITGKDCQDIANKGAKQSGLYFIKPLKANQQFLVYCEIDGSGNGWTVFQKRLDGSVDFKKNWIQYKEGFGHLSPTGTTEFWLGNEKIHLISTQSAIPYALRVELEDWNGRTSTADYAMFKVGPEADKYRLTYAYFAGGDAGDAFDGFDFGDDPSDKFFTSHNGMQFSTWDNDNDKFEGNCAEQDGSGWWMNKCHAGHLNGVYYQGGTYSKASTPNGYDNGIIWATWKTRWYSMKKTTMKIIPFNRLTIGEGQQHHLGGAKQAGDV
notes: the fibrinogen of human platelet-rich plasma in the aggregometry assay; also called Fg
B4: binds [5].

With CNPRGDYRC (Y(OEt); terminal cysteines (C) cyclized through disulfide) [free cyclic RGD peptide cyclo-CNPRGDY(OEt)RC] the “IC50: concentration of peptide required to inhibit fibrinogen-mediated platelet aggregation in platelet-rich plasma by 50% (aggregometry), against lRGD” value [6] was ~1000 times lower than for lRGD and the “IC50 estimation by aggregometry assay, against lRGD” value [6] was ~100 fold lower than for lRGD (printed as 2 orders of magnitude).
